According to the RNAGym collection of RNA variant scans (doi:10.1073/pnas.2313332121):
Fewer inactive variants are shown than the library holds.

B1: TPR 5TU (parent)
chain: GGAUCUUCUCGAUCUAACAAAAAAGACAAAUCUGCCACAAAGCUUGAGAGCAUCUUCGGAUGCAGAGGCGGCAGCCUUCGGUGGCGCGAUAGCGCCAACGUUCUCAACUAUGACACGCAAAACGCGUGCUCCGUUGAAUGGAGUUUAUCAUG

Variants of: B1
Experiment: polymerase ribozyme fitness, log enrichment relative to wild type (log ratio); higher = more active; in vitro selection for triplet polymerase activity
Summary of the method: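 PCR was used to build mutant libraries for each subunit of a heterodimeric triplet polymerase ribozyme, which were then transcribed. A single in vitro selection round, in triplicate, used a frozen incubation at −7 °C and recovered extended constructs by gel excision, streptavidin beads and RT-PCR. Fitness is the logarithm of genotype enrichment relative to wild-type enrichment, averaged over replicates with inverse-variance weights. The logarithm is base 2, and after Illumina sequencing only genotypes with ≥10 input reads and ≥1 read per output were kept.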

Variant | polymerase ribozyme fitness (log ratio)
GGAUCUUCUCGAUCUAACAAAAAAGACAAAUCUGCCACAAAGCUUGAGAGCAUCUUCGGAUGCAGAGGCGGCAGCCUUCGGUGGCGCGAUAGCGCUAACGUUCUCAACUGUGACACGCAAAACGCGUGCUCCGUUGAAUGGAGUUUAUCAUG [C96U A110G] | -3.55
GGAUCUUCUCGAUCUAACAAAAAAGACAAAUCUGCCACAAAGCUUGAGAGCAUCUUCGGAUGCAGAGGCGGCAGCCUUCGGUGGCGCGAUAGCGCGAACGUUCUCAACUACGACACGCAAAACGCGUGCUCCGUUGAAUGGAGUUUAUCAUG [C96G U111C] | -3.62
GGAUCUUCUCGAUCUAACAAAAAAGACAAAUCUGCCACAAAGCUUGAGAGCAUCUUCGGAUGCAGAGGCGGCAGCCUUCGGUGGCGCGAUAGCGCGAACGUUAUCAACUAUGACACGCAAAACGCGUGCUCCGUUGAAUGGAGUUUAUCAUG [C96G C103A] | -2.09
GGAUCUUCUCGAUCUAACAAAAAAGACAAAUCUGCCACAAAGCUUGAGAGCAUCUUCGGAUGCAGAGGCGGCAGCCUUCGGUGGCGCGAUAGCGCGAACGUUCUCAACUAUGACACGCAAAACGCGUGCUCCGUUGAAUGGAUUUUAUCAUG [C96G G143U] | -3.01
GGAUCUUCUCGAUCUAACAAAAAAGACAAAUCUGCCACAAAGCUUGAGAGCAUCUUCGGAUGCAGAGGCGGCAGCCUUCGGUGGCGCGAUAGCGCGAACGUUCUCAACUAUGACACGCAAAACGCGUGCUCCGUUGAAUGGAAUUUAUCAUG [C96G G143A] | -2.42
GGAUCUUCUCGAUCUAACAAAAAAGACAAAUCUGCCACAAAGCUUGAGAGCAUCUUCGGAUGCAGAGGCGGCAGCCUUCGGUGGCGCGAUAGCGCGAACGUUCUCAACUAUGACACGCAAAACGCGUGCUCCGUUGAAUGGAGUUUAUCAUC [C96G G152C] | -3.62
GGAUCUUCUCGAUCUAACAAAAAAGACAAAUCUGCCACAAAGCUUGAGAGCAUCUUCGGAUGCAGAGGCGGCAGCCUUCGGUGGCGCGAUAGCGCGAUCAUUCUCAAGUAUGACACGCAAAACGCGUGCUCCCUUGAAUGGAGUUUAUCAUG [C96G A98U G100A C108G G133C] | ≤ -4.2
GGAUCUUCUCGAUCUAACAAAAAAGACAAAUCUGCCACAAAGCUUGAGAGCAUCUUCGGAUGCAGAGGCGGCAGCCUUCGGUGGCGCGAUAGCGCGAACGUUCGCAACUAUGACACGCAAAACGCGUGCUCCGUUGAAUGUAGUUUAUCAUG [C96G U104G G141U] | -1.2
GGAUCUUCUCGAUCUAACAAAAAAGACAAAUCUGCCACAAAGCUUGAGAGCAUCUUCGGAUGCAGAGGCGGCAGCCUUCGGUGGCGCGAUAGCGCGAACGUUCUCACAUAUGACACGCAUAACGCGUGCUCCGUUUAAUGGAGUUUAUCAUG [C96G A107C C108A A120U G136U] | -3.81
GGAUCUUCUCGAUCUAACAAAAAAGACAAAUCUGCCACAAAGCUUGAGAGCAUCUUCGGAUGCAGAGGCGGCAGCCUUCGGUGGCGCGAUAGCGCGAACGUUCUCAACUAUGACACGCACAACGCGUGCUCCGUUGAAUGGAGUUCAUCAUG [C96G A120C U146C] | -0.778
GGAUCUUCUCGAUCUAACAAAAAAGACAAAUCUGCCACAAAGCUUGAGAGCAUCUUCGGAUGCAGAGGCGGCAGCCUUCGGUGGCGCGAUAGCGCGAACGUUCUCAACUAUGACACGCAAUACGCGUGCUCCGUUGAAUGGAGUUUAUCAUG [C96G A121U] | -0.582
GGAUCUUCUCGAUCUAACAAAAAAGACAAAUCUGCCACAAAGCUUGAGAGCAUCUUCGGAUGCAGAGGCGGCAGCCUUCGGUGGCGCGAUAGCGCAAACGUUCUCAACUAUGACACGCAAAACGCGCGCUCCGUUGAAUGGAGUUUAUCAUG [C96A U127C] | -1.71
GGAUCUUCUCGAUCUAACAAAAAAGACAAAUCUGCCACAAAGCUUGAGAGCAUCUUCGGAUGCAGAGGCGGCAGCCUUCGGUGGCGCGAUAGCGCAAACGUUCUCAACUAUGACACGCAAAACGCGUGCUCCGUAGAAUGGAGUUUAUCAUG [C96A U135A] | -1.48
GGAUCUUCUCGAUCUAACAAAAAAGACAAAUCUGCCACAAAGCUUGAGAGCAUCUUCGGAUGCAGAGGCGGCAGCCUUCGGUGGCGCGAUAGCGCGAACGUUCUCAACUAUGACACGCAAAACACGUGCUCCGUUGAAUGGAGUUUAUCAUG [C96G G124A] | -0.441
GGAUCUUCUCGAUCUAACAAAAAAGACAAAUCUGCCACAAAGCUUGAGAGCAUCUUCGGAUGCAGAGGCGGCAGCCUUCGGUGGCGCGAUAGCGCGAACGUUCUUAACUAUGCCACGCAAUACGCGUGCUCCGUUGAAUGGAGUUUAUCAUG [C96G C105U A113C A121U] | -2.76
GGAUCUUCUCGAUCUAACAAAAAAGACAAAUCUGCCACAAAGCUUGAGAGCAUCUUCGGAUGCAGAGGCGGCAGCCUUCGGUGGCGCGAUAGCGCGAACGUUCUCAACUAUGACACGCAAAACGCGUGCUCCGUUGAAUGGAGUUUAGCAUG [C96G U148G] | -4.12
GGAUCUUCUCGAUCUAACAAAAAAGACAAAUCUGCCACAAAGCUUGAGAGCAUCUUCGGAUGCAGAGGCGGCAGCCUUCGGUGGCGCGAUAGCGCGAACGUUCUCAACUAUGACACGCAAAACGCGUGCUCCGUUGAAUGGAGUUUACCAUG [C96G U148C] | -1.42
GGAUCUUCUCGAUCUAACAAAAAAGACAAAUCUGCCACAAAGCUUGAGAGCAUCUUCGGAUGCAGAGGCGGCAGCCUUCGGUGGCGCGAUAGCGCGAACGUUCUCAACUAUGACACGCAAAACGCGUGCUCCGUUGAAUGUAGUUUAUCAUG [C96G G141U] | 0.463
GGAUCUUCUCGAUCUAACAAAAAAGACAAAUCUGCCACAAAGCUUGAGAGCAUCUUCGGAUGCAGAGGCGGCAGCCUUCGGUGGCGCGAUAGCGCAAACGUUCGCAACUAUGACACGCAAAACGCGUGCUCCGUUGAAUGGAGUUUAUCAUG [C96A U104G] | -0.932
